Measured values published in US20220275350A1 (MAX PLANCK GESELLSCHAFT ZUR F RDERUNG DER WISSENSCHAFTEN E V, published 2022).

Target: T1, cpHaloΔ9mer
T1 construct: also called cpHalo_9mer; cpHalo156-141
Test: ITC; 9mer peptide (~30 mM) titrated into 0.6 mM cpHaloΔ9mer; three independent measurements; one-site model
Method: Heat of dilution of the peptide was subtracted prior to the analysis. Kd was calculated from three independent measurements, error represents standard deviation.
This maximal concentration of peptide was titrated against a 0.6 mM cpHaloΔ9mer (FIG. 1).

T1 sequence (chain, as listed by the source mutant): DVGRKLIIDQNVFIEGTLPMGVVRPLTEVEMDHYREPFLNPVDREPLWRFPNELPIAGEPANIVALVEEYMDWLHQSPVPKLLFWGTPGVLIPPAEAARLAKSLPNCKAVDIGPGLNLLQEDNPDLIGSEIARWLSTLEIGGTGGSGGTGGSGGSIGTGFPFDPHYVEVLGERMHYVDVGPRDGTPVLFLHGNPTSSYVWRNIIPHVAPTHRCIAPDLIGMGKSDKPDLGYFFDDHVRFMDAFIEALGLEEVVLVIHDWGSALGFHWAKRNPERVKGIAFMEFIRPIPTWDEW

- Kd: 5.3 mM
B1: 9mer peptide (peptide)
peptide: ARETFQAFR
notes: Free peptide titrated in the ITC assay; also called PEP1
